Tests used:
[1] = target: the molecule itself; assay: SEC; Superdex 200 Increase 10/300, 20 mM HEPES pH 7.0, 200 mM NaCl, 277.15 K; tetramer fraction isolated
[2] = target: the molecule itself; assay: SAXS; batch mode, 0.9 mg/mL hPAH in 20 mM HEPES pH 7.0, 200 mM NaCl, 0-1.2% v/v [N1112(OH)][C4F9SO3], no L-Phe; volume fractions of oligomers fitted with OLIGOMER
[3] = target: the molecule itself; assay: native gel or EMSA; blue native PAGE, NativePAGE 4-16% Bis-Tris gel; hPAH with 0-1.2% v/v [N1112(OH)][C4F9SO3], with and without L-Phe

B1: human phenylalanine hydroxylase (enzyme, UniProt P00439 1-452, looked up)
chain: MSTAVLENPGLGRKLSDFGQETSYIEDNCNQNGAISLIFSLKEEVGALAKVLRLFEENDVNLTHIESRPSRLKKDEYEFFTHLDKRSLPALTNIIKILRHDIGATVHELSRDKKKDTVPWFPRTIQELDRFANQILSYGAELDADHPGFKDPVYRARRKQFADIAYNYRHGQPIPRVEYMEEEKKTWGTVFKTLKSLYKTHACYEYNHIFPLLEKYCGFHEDNIPQLEDVSQFLQTCTGFRLRPVAGLLSSRDFLGGLAFRVFHCTQYIRHGSKPMYTPEPDICHELLGHVPLFSDRSFAQFSQEIGLASLGAPDEYIEKLATIYWFTVEFGLCKQGDSIKAYGAGLLSSFGELQYCLSEKPKLLPLELEKTAIQNYTVTEFQPLYYVAESFNDAKEKVRNFAATIPRPFSVRYDPYTQRIEVLDNTQQLKILADSINSEIGILCSALQKIK
notes: human phenylalanine hydroxylase (hPAH), recombinant full-length, each subunit 52 kDa; No step that cleaves the tag is described, and the enzymatic assays name the protein His6-hPAH, so the tag and linker were probably kept; The tetramer fraction from SEC was the starting material of all assays; also called hPAH; His6-hPAH; source: E. coli Top10, purified (Ni-NTA, SEC on Superdex 200 Increase; …)
- stoichiometry N [1]: 4
- stoichiometry N [2]: 2
- stoichiometry N [3]: 8
